Measurements as given in patent publication US20090118184A1 (UNIVERSITY OF ROCHESTER, published 2009).

Columns and labels:
Experiment in all cases: cell-based or functional assay
[1] = molecular target: T1, factor VIIIa A1/A3C1C2 dimer, N1950A (human, UniProt P00451 20-391; P00451 1709-2351)
T1 sequence 1: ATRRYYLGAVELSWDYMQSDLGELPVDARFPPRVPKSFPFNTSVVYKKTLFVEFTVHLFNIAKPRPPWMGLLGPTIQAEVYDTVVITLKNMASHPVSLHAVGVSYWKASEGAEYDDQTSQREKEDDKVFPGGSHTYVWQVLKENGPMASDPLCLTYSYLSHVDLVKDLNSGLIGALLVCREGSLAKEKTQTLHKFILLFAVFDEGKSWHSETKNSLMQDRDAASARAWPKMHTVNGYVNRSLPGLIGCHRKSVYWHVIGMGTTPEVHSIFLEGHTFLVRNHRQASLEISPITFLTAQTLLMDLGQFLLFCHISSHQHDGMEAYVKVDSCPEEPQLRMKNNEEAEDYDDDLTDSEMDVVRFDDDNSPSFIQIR
T1 sequence 2: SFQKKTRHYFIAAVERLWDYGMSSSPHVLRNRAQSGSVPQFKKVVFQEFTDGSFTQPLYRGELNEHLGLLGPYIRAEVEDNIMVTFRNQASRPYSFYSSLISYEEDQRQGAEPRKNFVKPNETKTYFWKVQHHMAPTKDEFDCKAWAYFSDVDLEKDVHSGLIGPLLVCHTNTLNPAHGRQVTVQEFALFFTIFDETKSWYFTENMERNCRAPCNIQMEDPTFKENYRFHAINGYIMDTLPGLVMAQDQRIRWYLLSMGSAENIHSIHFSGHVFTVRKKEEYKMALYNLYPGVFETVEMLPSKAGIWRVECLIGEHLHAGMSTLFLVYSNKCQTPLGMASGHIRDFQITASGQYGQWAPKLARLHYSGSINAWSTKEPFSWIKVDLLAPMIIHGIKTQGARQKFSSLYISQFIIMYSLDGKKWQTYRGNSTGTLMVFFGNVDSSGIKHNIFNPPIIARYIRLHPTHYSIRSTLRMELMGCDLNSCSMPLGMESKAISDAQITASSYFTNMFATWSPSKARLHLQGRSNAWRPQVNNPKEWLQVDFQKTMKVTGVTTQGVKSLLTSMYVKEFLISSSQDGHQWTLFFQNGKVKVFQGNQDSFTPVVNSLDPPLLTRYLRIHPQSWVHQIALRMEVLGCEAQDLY

[2] = molecular target: T2, factor VIIIa A1/A3C1C2 dimer, R1966A (human, UniProt P00451 20-391; P00451 1709-2351)
T2 sequence 1: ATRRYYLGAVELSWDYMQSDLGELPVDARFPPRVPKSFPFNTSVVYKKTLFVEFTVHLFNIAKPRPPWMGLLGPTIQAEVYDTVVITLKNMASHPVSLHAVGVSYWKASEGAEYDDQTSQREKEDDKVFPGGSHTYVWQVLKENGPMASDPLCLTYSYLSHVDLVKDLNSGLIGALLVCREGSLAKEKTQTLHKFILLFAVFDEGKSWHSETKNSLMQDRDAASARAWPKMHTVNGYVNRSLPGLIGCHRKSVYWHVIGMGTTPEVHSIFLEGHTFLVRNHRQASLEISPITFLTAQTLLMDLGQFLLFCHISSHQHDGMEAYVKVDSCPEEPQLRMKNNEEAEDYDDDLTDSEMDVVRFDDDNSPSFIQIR
T2 sequence 2: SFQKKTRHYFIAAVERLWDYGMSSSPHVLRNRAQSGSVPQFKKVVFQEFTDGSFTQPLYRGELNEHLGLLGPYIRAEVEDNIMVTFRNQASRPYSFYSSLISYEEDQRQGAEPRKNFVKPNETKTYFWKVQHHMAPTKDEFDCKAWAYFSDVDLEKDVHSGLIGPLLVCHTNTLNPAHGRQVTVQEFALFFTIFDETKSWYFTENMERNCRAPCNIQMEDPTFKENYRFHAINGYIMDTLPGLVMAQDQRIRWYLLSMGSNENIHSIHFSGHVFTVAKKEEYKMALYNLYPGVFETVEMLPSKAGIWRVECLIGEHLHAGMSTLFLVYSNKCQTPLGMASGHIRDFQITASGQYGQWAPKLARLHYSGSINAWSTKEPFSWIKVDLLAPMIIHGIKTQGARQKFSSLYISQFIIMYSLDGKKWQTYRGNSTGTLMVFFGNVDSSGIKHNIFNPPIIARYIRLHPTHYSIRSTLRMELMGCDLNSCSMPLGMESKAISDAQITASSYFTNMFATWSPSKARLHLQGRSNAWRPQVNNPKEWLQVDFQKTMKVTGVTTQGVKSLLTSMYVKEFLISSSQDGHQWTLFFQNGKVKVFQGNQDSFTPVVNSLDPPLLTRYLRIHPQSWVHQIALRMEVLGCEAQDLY

[3] = molecular target: T3, factor VIIIa A1/A3C1C2 dimer, Y1786F (human, UniProt P00451 20-391; P00451 1709-2351)
T3 sequence 1: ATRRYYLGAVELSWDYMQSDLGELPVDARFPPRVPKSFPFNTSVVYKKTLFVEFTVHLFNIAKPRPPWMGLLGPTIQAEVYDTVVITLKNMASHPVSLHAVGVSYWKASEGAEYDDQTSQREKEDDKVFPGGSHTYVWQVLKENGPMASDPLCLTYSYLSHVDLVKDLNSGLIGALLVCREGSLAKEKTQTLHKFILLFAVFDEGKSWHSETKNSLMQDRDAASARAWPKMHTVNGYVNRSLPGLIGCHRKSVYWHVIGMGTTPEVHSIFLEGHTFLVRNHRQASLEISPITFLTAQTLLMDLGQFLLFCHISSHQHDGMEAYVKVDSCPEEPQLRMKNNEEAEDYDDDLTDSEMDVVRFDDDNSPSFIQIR
T3 sequence 2: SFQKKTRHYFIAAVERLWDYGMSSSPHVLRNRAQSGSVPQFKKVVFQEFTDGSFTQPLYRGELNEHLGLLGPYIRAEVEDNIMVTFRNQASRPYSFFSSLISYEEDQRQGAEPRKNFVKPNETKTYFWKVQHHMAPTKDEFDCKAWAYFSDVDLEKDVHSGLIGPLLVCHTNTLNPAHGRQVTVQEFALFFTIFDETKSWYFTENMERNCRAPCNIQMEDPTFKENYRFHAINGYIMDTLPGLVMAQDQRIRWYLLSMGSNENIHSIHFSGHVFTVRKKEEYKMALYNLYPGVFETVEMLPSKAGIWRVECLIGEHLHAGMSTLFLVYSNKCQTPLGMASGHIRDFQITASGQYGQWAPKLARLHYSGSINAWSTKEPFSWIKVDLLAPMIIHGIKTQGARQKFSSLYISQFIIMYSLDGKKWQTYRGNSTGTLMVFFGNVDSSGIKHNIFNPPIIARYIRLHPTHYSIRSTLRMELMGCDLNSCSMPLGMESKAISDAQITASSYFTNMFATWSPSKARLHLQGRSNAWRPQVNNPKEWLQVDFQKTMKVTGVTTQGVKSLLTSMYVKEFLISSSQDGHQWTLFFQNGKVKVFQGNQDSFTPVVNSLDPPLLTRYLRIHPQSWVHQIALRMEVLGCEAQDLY

- Factor VIIIa decay rate relative to wild type, FIXa (+) [1]: 1.73 relative to wild type
- Factor VIIIa decay rate, FIXa (+) [1]: 0.0195 min⁻¹
- Factor VIIIa decay rate relative to wild type, FIXa (+) [2]: 1.44 relative to wild type
- Factor VIIIa decay rate, FIXa (+) [2]: 0.0163 min⁻¹
- Factor VIIIa decay rate relative to wild type, FIXa (+) [3]: 20.9 relative to wild type
- Factor VIIIa decay rate relative to wild type, FIXa (-) [3]: 17 relative to wild type
- Factor VIIIa decay rate, FIXa (+) [3]: 0.236 min⁻¹
- Factor VIIIa decay rate, FIXa (-) [3]: 1.07 min⁻¹
B1: factor VIIIa A2 subunit, wild type (other)
chain: SVAKKHPKTWVHYIAAEEEDWDYAPLVLAPDDRSYKSQYLNNGPQRIGRKYKKVRFMAYTDETFKTREAIQHESGILGPLLYGEVGDTLLIIFKNQASRPYNIYPHGITDVRPLYSRRLPKGVKHLKDFPILPGEIFKYKWTVTVEDGPTKSDPRCLTRYYSSFVNMERDLASGLIGPLLICYKESVDQRGNQIMSDKRNVILFSVFDENRSWYLTENIQRFLPNPAGVQLEDPEFQASNIMHSINGYVFDSLQLSVCLHEVAYWYILSIGAQTDFLSVFFSGYTFKHKMVYEDTLTLFPFSGETVFMSMENPGLWILGCHNSDFRNRGMTALLKVSSCDKNTGDYYEDSYEDISAYLLSKNNAIEPR
